Test results published in paper doi:10.64898/2025.12.18.694329.

How the values were obtained:
[1] = target: SACSIN HEPN domain (recombinant, GST-tag removed) (human); test: SEC
[2] = target: SACSIN HEPN domain (recombinant, GST-tag removed) (human); test: native gel or EMSA

With “SACSIN HEPN domain (recombinant, GST-tag removed) (domain or fragment)” the stoichiometry N [1] was 2 and the stoichiometry N [2] was 2.
